Laboratory results reported in the supplement of paper PMC10724198.

Tests used:
Saccharomyces cerevisiae [1] = assay: protein stability index of tFT-peptide fusion in wild type (PSI (0-1 scale)); higher = more stable (slower turnover); settings: genetic background: wild type
Procedure: (§1)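 MPS profiling in S. cerevisiae of two library types built from selected 12-aa C-degron peptides (IN1, IN2, LN1, LN3, VN2, R1-R5, W1-W3, Atg1 and Rpa12 C-termini): saturation mutagenesis libraries and C-terminal +1 capping libraries (13 aa). Each peptide is fused to the C-terminus of a sfGFP-mCherry timer, after a GGGS linker. Cells are FACS-sorted into 8 mCherry/sfGFP bins and sequenced. PSI runs from 0 (unstable) to 1 (stable), measured once in wild type and in the das1Δ or doa10Δ background.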

Saccharomyces cerevisiae [2] = assay: protein stability index of tFT-peptide fusion in deletion strain of DAS1 (PSI (0-1 scale)); higher = more stable (slower turnover)
Procedure: as §1
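Throughout, for protein stability index of tFT-peptide fusion in deletion strain of DAS1: PSI is a weighted mean of each variant's read distribution over the sorted stability bins, computed only for variants having over 10 reads in total.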
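Throughout, for protein stability index of tFT-peptide fusion in wild type: PSI derived as read-weighted mean over the 8 sorting bins, only variants exceeding 10 total reads kept, mCherry placed adjacent to the peptide and sfGFP distal.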

Sequence: CTNCGYKFRTNN
- protein stability index (Saccharomyces cerevisiae [1]): 0.216
- protein stability index (Saccharomyces cerevisiae [2]): 0.696

Sequence: CTSCGYKFRTNNH
- protein stability index (Saccharomyces cerevisiae [1]): 0.687
- protein stability index (Saccharomyces cerevisiae [2]): 0.706

Sequence: CMSCGYKFRTNN
- protein stability index (Saccharomyces cerevisiae [1]): 0.228
- protein stability index (Saccharomyces cerevisiae [2]): 0.71

Sequence: CTSCGYKFRTNY
- protein stability index (Saccharomyces cerevisiae [1]): 0.611
- protein stability index (Saccharomyces cerevisiae [2]): 0.742

Sequence: CTTCGYKFRTNN
- protein stability index (Saccharomyces cerevisiae [1]): 0.267
- protein stability index (Saccharomyces cerevisiae [2]): 0.677

Sequence: VRGAVGGWILVG
- protein stability index (Saccharomyces cerevisiae [1]): 0.25
- protein stability index (Saccharomyces cerevisiae [2]): 0.638

Sequence: RLIQPDPVQFLN
- protein stability index (Saccharomyces cerevisiae [1]): 0.216
- protein stability index (Saccharomyces cerevisiae [2]): 0.565

Sequence: LKILRQKMWHQN
- protein stability index (Saccharomyces cerevisiae [1]): 0.238
- protein stability index (Saccharomyces cerevisiae [2]): 0.657

Sequence: MDKRNHLIKLLN
- protein stability index (Saccharomyces cerevisiae [1]): 0.111
- protein stability index (Saccharomyces cerevisiae [2]): 0.702

Sequence: RLIQPLPVQFLF
- protein stability index (Saccharomyces cerevisiae [1]): 0.247
- protein stability index (Saccharomyces cerevisiae [2]): 0.779

Sequence: ERWRVGLWRGAS
- protein stability index (Saccharomyces cerevisiae [1]): 0.378
- protein stability index (Saccharomyces cerevisiae [2]): 0.741

Sequence: LVVYLSCVAQIN
- protein stability index (Saccharomyces cerevisiae [1]): 0.014
- protein stability index (Saccharomyces cerevisiae [2]): 0.0252

Sequence: CRGAVGGWRLVG
- protein stability index (Saccharomyces cerevisiae [1]): 0.163
- protein stability index (Saccharomyces cerevisiae [2]): 0.647

Sequence: KKHKKGQKQRIN
- protein stability index (Saccharomyces cerevisiae [1]): 0.127
- protein stability index (Saccharomyces cerevisiae [2]): 0.642

Sequence: VRGAVGGWRLVL
- protein stability index (Saccharomyces cerevisiae [1]): 0.572
- protein stability index (Saccharomyces cerevisiae [2]): 0.68

Sequence: LVMYLSCVACIN
- protein stability index (Saccharomyces cerevisiae [1]): 0.0125
- protein stability index (Saccharomyces cerevisiae [2]): 0.135

Sequence: LKILQQKMNHQN
- protein stability index (Saccharomyces cerevisiae [1]): 0.163
- protein stability index (Saccharomyces cerevisiae [2]): 0.676

Sequence: PDKCNHLIKLLN
- protein stability index (Saccharomyces cerevisiae [1]): 0.209
- protein stability index (Saccharomyces cerevisiae [2]): 0.586

Sequence: VRGAVGGWRLVGI
- protein stability index (Saccharomyces cerevisiae [1]): 0.664
- protein stability index (Saccharomyces cerevisiae [2]): 0.679

Sequence: RLIQPLPVQFYN
- protein stability index (Saccharomyces cerevisiae [1]): 0.0309
- protein stability index (Saccharomyces cerevisiae [2]): 0.783

Sequence: RLIQPLPKQFLN
- protein stability index (Saccharomyces cerevisiae [1]): 0.103
- protein stability index (Saccharomyces cerevisiae [2]): 0.559

Sequence: PDKRNHLIKLLM
- protein stability index (Saccharomyces cerevisiae [1]): 0.112
- protein stability index (Saccharomyces cerevisiae [2]): 0.586

Sequence: FSMKWTFRYWVN
- protein stability index (Saccharomyces cerevisiae [1]): 0.0449
- protein stability index (Saccharomyces cerevisiae [2]): 0.565

Sequence: PSLAASFWRVVV
- protein stability index (Saccharomyces cerevisiae [1]): 0.144
- protein stability index (Saccharomyces cerevisiae [2]): 0.687

Sequence: RLIQPLPVQFHN
- protein stability index (Saccharomyces cerevisiae [1]): 0.24
- protein stability index (Saccharomyces cerevisiae [2]): 0.616

Sequence: LVVYLTCVACIN
- protein stability index (Saccharomyces cerevisiae [1]): 0.0129
- protein stability index (Saccharomyces cerevisiae [2]): 0.0371

Sequence: GSLAASFWRVVG
- protein stability index (Saccharomyces cerevisiae [1]): 0.147
- protein stability index (Saccharomyces cerevisiae [2]): 0.689

Sequence: PQLAASFWRVVG
- protein stability index (Saccharomyces cerevisiae [1]): 0.152
- protein stability index (Saccharomyces cerevisiae [2]): 0.7

Sequence: CTSCGVKFRTNN
- protein stability index (Saccharomyces cerevisiae [1]): 0.486
- protein stability index (Saccharomyces cerevisiae [2]): 0.692

Sequence: FSMRWTFRPWVN
- protein stability index (Saccharomyces cerevisiae [1]): 0.245
- protein stability index (Saccharomyces cerevisiae [2]): 0.6

Sequence: MRGAVGGWRLVG
- protein stability index (Saccharomyces cerevisiae [1]): 0.146
- protein stability index (Saccharomyces cerevisiae [2]): 0.653

Sequence: LSILRQKMNHQN
- protein stability index (Saccharomyces cerevisiae [1]): 0.127
- protein stability index (Saccharomyces cerevisiae [2]): 0.675

Sequence: KKHKKVQKQKIN
- protein stability index (Saccharomyces cerevisiae [1]): 0.165
- protein stability index (Saccharomyces cerevisiae [2]): 0.619

Sequence: FSMRWMFRYWVN
- protein stability index (Saccharomyces cerevisiae [1]): 0.094
- protein stability index (Saccharomyces cerevisiae [2]): 0.528

Sequence: LKILRQKMSHQN
- protein stability index (Saccharomyces cerevisiae [1]): 0.37
- protein stability index (Saccharomyces cerevisiae [2]): 0.682

Sequence: CTKCGYKFRTNN
- protein stability index (Saccharomyces cerevisiae [1]): 0.258
- protein stability index (Saccharomyces cerevisiae [2]): 0.687

Sequence: KKHKKRQKQKIN
- protein stability index (Saccharomyces cerevisiae [1]): 0.0558
- protein stability index (Saccharomyces cerevisiae [2]): 0.587

Sequence: PSLAASFWRVAG
- protein stability index (Saccharomyces cerevisiae [1]): 0.256
- protein stability index (Saccharomyces cerevisiae [2]): 0.671

Sequence: ARWRVGLWRGNS
- protein stability index (Saccharomyces cerevisiae [1]): 0.553
- protein stability index (Saccharomyces cerevisiae [2]): 0.68

Sequence: STSCGYKFRTNN
- protein stability index (Saccharomyces cerevisiae [1]): 0.237
- protein stability index (Saccharomyces cerevisiae [2]): 0.669

Sequence: VRGAVGGWRLSG
- protein stability index (Saccharomyces cerevisiae [1]): 0.403
- protein stability index (Saccharomyces cerevisiae [2]): 0.67

Sequence: AIWRVGLWRGAS
- protein stability index (Saccharomyces cerevisiae [1]): 0.405
- protein stability index (Saccharomyces cerevisiae [2]): 0.69

Sequence: LVVYLSCVACKN
- protein stability index (Saccharomyces cerevisiae [1]): 0.034
- protein stability index (Saccharomyces cerevisiae [2]): 0.0769

Sequence: KKHKKGQKQKFN
- protein stability index (Saccharomyces cerevisiae [1]): 0.307
- protein stability index (Saccharomyces cerevisiae [2]): 0.635

Sequence: ARWRVGLLRGAS
- protein stability index (Saccharomyces cerevisiae [1]): 0.652
- protein stability index (Saccharomyces cerevisiae [2]): 0.669

Sequence: PRGAVGGWRLVG
- protein stability index (Saccharomyces cerevisiae [1]): 0.169
- protein stability index (Saccharomyces cerevisiae [2]): 0.671

Sequence: LVVYLSAVACIN
- protein stability index (Saccharomyces cerevisiae [1]): 0.0153
- protein stability index (Saccharomyces cerevisiae [2]): 0.0365
